Molecular target: FGFR3 (UniProt P22607)
Test: phosphorylation enrichment, bacterial display (enrichment ratio); higher = better substrate or ligand; peptides without Tyr show the background
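Also: 11-residue human phosphosite peptides and single-mutation variants displayed on the E. coli surface, counted by deep sequencing, each peptide's frequency after selection divided by its frequency in the unselected input library; frequency after pTyr selection over input frequency; kinase dosed for 20-30% of maximal phosphorylation in three min.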

Chain of FGFR3 (P22607 whole entry, looked up): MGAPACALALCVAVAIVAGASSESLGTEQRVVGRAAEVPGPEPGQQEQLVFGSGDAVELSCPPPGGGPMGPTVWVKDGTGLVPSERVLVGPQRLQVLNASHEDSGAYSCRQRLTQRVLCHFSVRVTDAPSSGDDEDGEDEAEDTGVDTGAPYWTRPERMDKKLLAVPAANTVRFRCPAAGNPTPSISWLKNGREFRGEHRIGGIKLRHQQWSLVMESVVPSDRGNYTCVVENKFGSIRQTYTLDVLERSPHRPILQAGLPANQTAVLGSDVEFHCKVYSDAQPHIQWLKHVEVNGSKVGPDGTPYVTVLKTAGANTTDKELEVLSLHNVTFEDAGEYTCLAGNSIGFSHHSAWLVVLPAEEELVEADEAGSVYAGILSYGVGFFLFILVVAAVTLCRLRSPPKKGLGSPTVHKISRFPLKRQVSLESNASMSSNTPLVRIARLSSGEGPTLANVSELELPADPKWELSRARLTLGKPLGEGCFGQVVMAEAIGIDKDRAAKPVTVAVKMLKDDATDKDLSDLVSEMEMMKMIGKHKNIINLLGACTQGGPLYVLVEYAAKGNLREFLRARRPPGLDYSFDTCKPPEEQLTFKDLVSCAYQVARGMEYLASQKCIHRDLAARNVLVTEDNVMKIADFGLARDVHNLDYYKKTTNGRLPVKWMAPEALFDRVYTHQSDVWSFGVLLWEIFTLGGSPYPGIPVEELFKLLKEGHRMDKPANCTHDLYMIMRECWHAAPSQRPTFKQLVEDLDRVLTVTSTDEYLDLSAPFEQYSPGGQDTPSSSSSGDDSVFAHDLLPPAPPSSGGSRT

Sequence | phosphorylation enrichment
PKGIRYGQGAG [CSRP3_Y73_G72R] | 0.453
QLQVFYATLDQ [MIPEP_Y579] | 1.34
ALRASYTPSPV [ESS2_Y418_A423V] | 0.502
WDLTDYLMKIL [ACTB_Y188_R183W] | 0.777
FNSLLYQVPTS [CALCOCO2_Y358_P357L] | 1.32
SLFNGYVYSGV [NEIL3_Y71] | 0.634
FARECYSALPQ [SARS2_Y52_G51C_YF] | 1.06
SFPSFYTSHVQ [NEFL_Y443_YF] | 0.609
SYCYRYRCAAQ [SUMF1_Y344_R349Q] | 0.464
TINPIHEHVGY [CHN1_Y143_Y143H] | 0.414
MEKEKYVSYIS [JMJD1C_Y596] | 0.672
QCTSAYLLQPE [NANS_Y188_P189L] | 1.21
KKCTRYIDCDL [ASPA_Y64] | 0.575
HNVPICEGYAL [ACTC1_Y168_Y168C] | 0.841
PKEEPYKMQEK [SLC5A3_Y565_Q566K] | 0.587
LSVISYDLGMF [GBA3_Y174_M172I] | 0.581
ACCLLYHGDVV [TUBA4A_Y319_R320H] | 1.45

Sequence | phosphorylation enrichment
MASISYDYCRV [BST2_Y6_T4I] | 1.1
DDIPLYLKGGV [COX7A2_Y44_E40D] | 0.737
GLVFLYVEKNQ [PRELP_Y156_M157V] | 0.902
NPIGLYSAEIL [LDB3_Y202_T206I] | 0.562
LQLLGDRPVYS [CHST6_Y358_Y358D] | 1.64
DDEVFYSPRSL [OTC_Y317] | 0.847
CDKEYYSVHNK [MET_Y1235_Y1230C] | 2.09
SSVKPYRVYCD [FGB_Y266] | 0.516
PFSSPYENSLI [EPOR_Y489_N487S_YF] | 1.3
IFLENYNAGTF [CFI_Y421_H418L_YF] | 0.724
LTTPTYGDLNH [TUBB_Y222] | 1.11
NEKNIYRVPLM [BMPR2_Y247] | 0.501
SLLPDYEDEEE [ZNF830_Y159] | 0.782
ISKKRYAGLLF [POLD1_Y809] | 0.467
FIATQYSLRPR [LBR_Y166_YF] | 0.471
GDSVQYNRTTD [MLPH_Y454_P451S] | 0.498

System: Fer (mouse)
Test: as above

Sequence | phosphorylation enrichment
PKGIRYGQGAG [CSRP3_Y73_G72R] | 0.349
QLQVFYATLDQ [MIPEP_Y579] | 2.77
ALRASYTPSPV [ESS2_Y418_A423V] | 0.424
WDLTDYLMKIL [ACTB_Y188_R183W] | 0.529
FNSLLYQVPTS [CALCOCO2_Y358_P357L] | 15
SLFNGYVYSGV [NEIL3_Y71] | 0.864
FARECYSALPQ [SARS2_Y52_G51C_YF] | 0.982
SFPSFYTSHVQ [NEFL_Y443_YF] | 0.509
SYCYRYRCAAQ [SUMF1_Y344_R349Q] | 0.346
TINPIHEHVGY [CHN1_Y143_Y143H] | 0.757
MEKEKYVSYIS [JMJD1C_Y596] | 0.397
QCTSAYLLQPE [NANS_Y188_P189L] | 0.611
KKCTRYIDCDL [ASPA_Y64] | 0.423
HNVPICEGYAL [ACTC1_Y168_Y168C] | 0.499
PKEEPYKMQEK [SLC5A3_Y565_Q566K] | 0.612
LSVISYDLGMF [GBA3_Y174_M172I] | 0.415
ACCLLYHGDVV [TUBA4A_Y319_R320H] | 1.88

Sequence | phosphorylation enrichment
MASISYDYCRV [BST2_Y6_T4I] | 2.33
DDIPLYLKGGV [COX7A2_Y44_E40D] | 0.401
GLVFLYVEKNQ [PRELP_Y156_M157V] | 0.575
NPIGLYSAEIL [LDB3_Y202_T206I] | 3.44
LQLLGDRPVYS [CHST6_Y358_Y358D] | 1.53
DDEVFYSPRSL [OTC_Y317] | 1.57
CDKEYYSVHNK [MET_Y1235_Y1230C] | 0.601
SSVKPYRVYCD [FGB_Y266] | 0.42
PFSSPYENSLI [EPOR_Y489_N487S_YF] | 3.51
IFLENYNAGTF [CFI_Y421_H418L_YF] | 0.423
LTTPTYGDLNH [TUBB_Y222] | 1.07
NEKNIYRVPLM [BMPR2_Y247] | 0.439
SLLPDYEDEEE [ZNF830_Y159] | 0.64
ISKKRYAGLLF [POLD1_Y809] | 0.307
FIATQYSLRPR [LBR_Y166_YF] | 0.399
GDSVQYNRTTD [MLPH_Y454_P451S] | 0.457

Molecular target: Fes (UniProt P07332)
Test: as above

Chain of Fes (P07332 whole entry, looked up): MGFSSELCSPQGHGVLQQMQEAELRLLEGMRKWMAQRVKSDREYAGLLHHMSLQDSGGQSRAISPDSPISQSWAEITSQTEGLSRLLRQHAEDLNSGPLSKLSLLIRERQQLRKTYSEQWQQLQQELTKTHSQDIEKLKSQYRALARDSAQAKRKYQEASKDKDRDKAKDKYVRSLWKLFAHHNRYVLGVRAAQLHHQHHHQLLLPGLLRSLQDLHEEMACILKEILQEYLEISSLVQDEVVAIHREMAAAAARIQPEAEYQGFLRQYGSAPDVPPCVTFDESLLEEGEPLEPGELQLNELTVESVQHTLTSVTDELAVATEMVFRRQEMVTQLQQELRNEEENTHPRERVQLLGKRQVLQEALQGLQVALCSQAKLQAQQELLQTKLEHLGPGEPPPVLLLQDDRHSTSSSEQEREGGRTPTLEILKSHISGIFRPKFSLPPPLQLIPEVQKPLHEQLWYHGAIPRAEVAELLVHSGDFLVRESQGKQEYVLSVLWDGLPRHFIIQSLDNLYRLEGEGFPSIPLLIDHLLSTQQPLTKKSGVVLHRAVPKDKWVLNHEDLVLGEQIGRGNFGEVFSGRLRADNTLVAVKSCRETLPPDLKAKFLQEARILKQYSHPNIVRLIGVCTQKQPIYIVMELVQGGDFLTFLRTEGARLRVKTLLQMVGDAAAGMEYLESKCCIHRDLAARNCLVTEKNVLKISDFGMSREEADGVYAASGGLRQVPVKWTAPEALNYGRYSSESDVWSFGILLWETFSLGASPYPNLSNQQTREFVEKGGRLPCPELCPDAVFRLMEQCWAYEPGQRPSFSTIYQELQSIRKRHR

Sequence | phosphorylation enrichment
PKGIRYGQGAG [CSRP3_Y73_G72R] | 0.504
QLQVFYATLDQ [MIPEP_Y579] | 2.19
ALRASYTPSPV [ESS2_Y418_A423V] | 0.723
WDLTDYLMKIL [ACTB_Y188_R183W] | 1.32
FNSLLYQVPTS [CALCOCO2_Y358_P357L] | 1.06
SLFNGYVYSGV [NEIL3_Y71] | 0.978
FARECYSALPQ [SARS2_Y52_G51C_YF] | 1.01
SFPSFYTSHVQ [NEFL_Y443_YF] | 0.857
SYCYRYRCAAQ [SUMF1_Y344_R349Q] | 0.599
TINPIHEHVGY [CHN1_Y143_Y143H] | 0.727
MEKEKYVSYIS [JMJD1C_Y596] | 1.11
QCTSAYLLQPE [NANS_Y188_P189L] | 1.49
KKCTRYIDCDL [ASPA_Y64] | 0.852
HNVPICEGYAL [ACTC1_Y168_Y168C] | 1
PKEEPYKMQEK [SLC5A3_Y565_Q566K] | 1.21
LSVISYDLGMF [GBA3_Y174_M172I] | 1.27
ACCLLYHGDVV [TUBA4A_Y319_R320H] | 0.887

Sequence | phosphorylation enrichment
MASISYDYCRV [BST2_Y6_T4I] | 0.908
DDIPLYLKGGV [COX7A2_Y44_E40D] | 1.12
GLVFLYVEKNQ [PRELP_Y156_M157V] | 1.29
NPIGLYSAEIL [LDB3_Y202_T206I] | 0.879
LQLLGDRPVYS [CHST6_Y358_Y358D] | 3.27
DDEVFYSPRSL [OTC_Y317] | 1.36
CDKEYYSVHNK [MET_Y1235_Y1230C] | 1.2
SSVKPYRVYCD [FGB_Y266] | 0.791
PFSSPYENSLI [EPOR_Y489_N487S_YF] | 1.42
IFLENYNAGTF [CFI_Y421_H418L_YF] | 0.938
LTTPTYGDLNH [TUBB_Y222] | 1.47
NEKNIYRVPLM [BMPR2_Y247] | 0.708
SLLPDYEDEEE [ZNF830_Y159] | 1.28
ISKKRYAGLLF [POLD1_Y809] | 0.507
FIATQYSLRPR [LBR_Y166_YF] | 0.671
GDSVQYNRTTD [MLPH_Y454_P451S] | 0.999

Molecular target: Fyn (UniProt P06241)
Test: as above

Chain of Fyn (P06241 whole entry, looked up): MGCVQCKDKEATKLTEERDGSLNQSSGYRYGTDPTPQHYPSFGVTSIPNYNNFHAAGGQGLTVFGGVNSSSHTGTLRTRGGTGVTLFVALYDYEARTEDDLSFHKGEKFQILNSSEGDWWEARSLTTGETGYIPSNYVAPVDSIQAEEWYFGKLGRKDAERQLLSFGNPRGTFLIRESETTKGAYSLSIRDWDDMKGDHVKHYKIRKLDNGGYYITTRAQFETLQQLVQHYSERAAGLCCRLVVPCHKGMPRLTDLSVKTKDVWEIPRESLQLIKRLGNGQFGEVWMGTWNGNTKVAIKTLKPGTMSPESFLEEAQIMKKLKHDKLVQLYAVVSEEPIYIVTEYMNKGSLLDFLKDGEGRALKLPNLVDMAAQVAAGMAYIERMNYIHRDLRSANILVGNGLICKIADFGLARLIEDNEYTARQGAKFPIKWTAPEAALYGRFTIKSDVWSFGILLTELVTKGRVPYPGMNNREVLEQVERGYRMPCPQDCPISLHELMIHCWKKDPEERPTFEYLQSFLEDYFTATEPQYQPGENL

Sequence | phosphorylation enrichment
PKGIRYGQGAG [CSRP3_Y73_G72R] | 0.411
QLQVFYATLDQ [MIPEP_Y579] | 1.8
ALRASYTPSPV [ESS2_Y418_A423V] | 0.39
WDLTDYLMKIL [ACTB_Y188_R183W] | 0.519
FNSLLYQVPTS [CALCOCO2_Y358_P357L] | 2.58
SLFNGYVYSGV [NEIL3_Y71] | 5.75
FARECYSALPQ [SARS2_Y52_G51C_YF] | 0.671
SFPSFYTSHVQ [NEFL_Y443_YF] | 0.563
SYCYRYRCAAQ [SUMF1_Y344_R349Q] | 0.419
TINPIHEHVGY [CHN1_Y143_Y143H] | 0.377
MEKEKYVSYIS [JMJD1C_Y596] | 0.471
QCTSAYLLQPE [NANS_Y188_P189L] | 1.01
KKCTRYIDCDL [ASPA_Y64] | 0.389
HNVPICEGYAL [ACTC1_Y168_Y168C] | 0.434
PKEEPYKMQEK [SLC5A3_Y565_Q566K] | 0.386
LSVISYDLGMF [GBA3_Y174_M172I] | 0.436
ACCLLYHGDVV [TUBA4A_Y319_R320H] | 0.507

Sequence | phosphorylation enrichment
MASISYDYCRV [BST2_Y6_T4I] | 0.565
DDIPLYLKGGV [COX7A2_Y44_E40D] | 0.459
GLVFLYVEKNQ [PRELP_Y156_M157V] | 0.505
NPIGLYSAEIL [LDB3_Y202_T206I] | 0.839
LQLLGDRPVYS [CHST6_Y358_Y358D] | 1.7
DDEVFYSPRSL [OTC_Y317] | 0.574
CDKEYYSVHNK [MET_Y1235_Y1230C] | 0.608
SSVKPYRVYCD [FGB_Y266] | 0.464
PFSSPYENSLI [EPOR_Y489_N487S_YF] | 1.34
IFLENYNAGTF [CFI_Y421_H418L_YF] | 0.55
LTTPTYGDLNH [TUBB_Y222] | 5.58
NEKNIYRVPLM [BMPR2_Y247] | 1.96
SLLPDYEDEEE [ZNF830_Y159] | 0.646
ISKKRYAGLLF [POLD1_Y809] | 0.448
FIATQYSLRPR [LBR_Y166_YF] | 0.458
GDSVQYNRTTD [MLPH_Y454_P451S] | 0.469

Reference: the supplement of paper PMC10065799, “High-throughput profiling of sequence recognition by tyrosine kinases and SH2 domains using bacterial peptide display” (eLife, 2023)
